Data on 94 variants can be found in the supplement of paper PMC10567573.

To fix the notation:
B1: ZBTB22 (parent)
chain: AVLAASSPYFHDQVLLKGMTSISL
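Further: lentivirally expressed fusions sorted by FACS into six bins by GFP to DsRed ratio, PSI derived from sequencing read proportions per bin multiplied by bin number.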

The variants in this data set derive from B1. Description: protein stability index of a GFP-peptide fusion (GPS, HEK-293T) (PSI 1-6); higher = more stable. The following applies: c terminus: a fixed tail appended.
As to AVLAASSPYFIDQVLLKGMTSISL [H11I], the protein stability index turned out to be 1.58.
Take AVLAASSPYFPDQVLLKGMTSISL [H11P]: the protein stability index came out at 2.11.
To AVLAASSPYFDDQVLLKGMTSISL [H11D] belongs 3.15; to AVLAASSPYFTDQVLLKGMTSISL [H11T], 3.44; to AVLAASSPYFMDQVLLKGMTSISL [H11M], 4.12.
Then AVLAASSPYFLDQVLLKGMTSISL [H11L], with 1.89; and AVLAASSPYFSDQVLLKGMTSISL [H11S], with 2.71.
As to AVLAASSPYFHDQVLCKGMTSISL [L16C], the protein stability index was 3.99.
To AVLAASSPYFHDQVLSKGMTSISL [L16S] belongs 2.26; to AVLAASSPYFHDQVLDKGMTSISL [L16D], 1.93; to AVLAASSPYFHDQVLGKGMTSISL [L16G], 2.28.
Then AVLAASSPYFHDQVLFKGMTSISL [L16F], with 2.47.
To AVLAASSPYFHDQVLMKGMTSISL [L16M] belongs 3.83; to AVLAASSPYFHDQVLNKGMTSISL [L16N], 2.37.
In the case of AVLAASSPYFHDQVLQKGMTSISL [L16Q], the protein stability index worked out at 2.32.
Then AVLAASSPYFHDQVLWKGMTSISL [L16W], with 2.44; and AVLAASSPYFHDQVLPKGMTSISL [L16P], with 2.27; and AVLAASSPYFHDQVLKKGMTSISL [L16K], with 3.
Then AVLAASSPYFHDQVLYKGMTSISL [L16Y], with 3.11.
To AVLAASSPYEHDQVLLKGMTSISL [F10E] belongs 1.76; to AVLAASSPYMHDQVLLKGMTSISL [F10M], 2.72.
For AVLAASSPYDHDQVLLKGMTSISL [F10D], the protein stability index was 2.04.
To AVLAASSPYKHDQVLLKGMTSISL [F10K] belongs 1.73.
On to AVLAASSPYHHDQVLLKGMTSISL [F10H], for which the protein stability index is 2.49.
As to AVLAASSPYNHDQVLLKGMTSISL [F10N], the protein stability index stood at 1.92.
AVLAASSPYPHDQVLLKGMTSISL [F10P]: the protein stability index turned out to be 1.
To AVLAASSPYQHDQVLLKGMTSISL [F10Q] belongs 1.65.
With AVLAASSPYCHDQVLLKGMTSISL [F10C], the protein stability index was found to be 2.28.
Then AVLAASSPYVHDQVLLKGMTSISL [F10V], with 2.44; and AVLAASSPYGHDQVLLKGMTSISL [F10G], with 2.6.
Then AVLAASSPYSHDQVLLKGMTSISL [F10S], with 1.87; and AVLAASSPYWHDQVLLKGMTSISL [F10W], with 2.24; and AVLAASSPYYHDQVLLKGMTSISL [F10Y], with 2.19.
To AVLAASSPYRHDQVLLKGMTSISL [F10R] belongs 1.41; to AVLAASSPYFHDQVLLAGMTSISL [K17A], 1.94; to AVLAASSPYFHDQVLLNGMTSISL [K17N], 1.43.
As to AVLAASSPYFHDQVLLIGMTSISL [K17I], the protein stability index was 3.47.
Then AVLAASSPYFHDVVLLKGMTSISL [Q13V], with 2.02; and AVLAASSPYFHDDVLLKGMTSISL [Q13D], with 3.61.
Then AVLAASSPYFHDAVLLKGMTSISL [Q13A], with 3.38; and AVLAASSPYFHDIVLLKGMTSISL [Q13I], with 4.9.
Then AVLAASSPYFHDFVLLKGMTSISL [Q13F], with 3; and AVLAASSPYFHDTVLLKGMTSISL [Q13T], with 3.86; and AVLAASSPYFHDKVLLKGMTSISL [Q13K], with 1.92.
In the case of AVLAASSPYFHDLVLLKGMTSISL [Q13L], the protein stability index is 1.43.
For the variant AVLAASSPYFHDMVLLKGMTSISL [Q13M], the protein stability index worked out at 2.94.
Then AVLAASSPYFHDHVLLKGMTSISL [Q13H], with 2.48; and AVLAASSPYFHDPVLLKGMTSISL [Q13P], with 1.64.
To AVLAASSPYFHDGVLLKGMTSISL [Q13G] belongs 2.15; to AVLAASSPYFHDQPLLKGMTSISL [V14P], 1.63; to AVLAASSPYFHDQTLLKGMTSISL [V14T], 2.96.
To AVLAASSPYFHDQNLLKGMTSISL [V14N] belongs 2.07.
In the case of AVLAASSPYFHDQMLLKGMTSISL [V14M], the protein stability index came out at 2.72.
To AVLAASSPYFHDQHLLKGMTSISL [V14H] belongs 2.37; to AVLAASSPYFHDQRLLKGMTSISL [V14R], 3.36; to AVLAASSPYFHDQYLLKGMTSISL [V14Y], 2.25.
To AVLAASSPYFHDQKLLKGMTSISL [V14K] belongs 1.04; to AVLAASSPYFHDQDLLKGMTSISL [V14D], 1.71; to AVLAASSPYFHDQQLLKGMTSISL [V14Q], 1.73.
Then AVLAASSPYFHDQELLKGMTSISL [V14E], with 2.47; and AVLAASSPYFHDQSLLKGMTSISL [V14S], with 3.06.
For AVLAASSPYFHDQCLLKGMTSISL [V14C], the protein stability index was 3.27.
Then AVLAASSPYFHDQFLLKGMTSISL [V14F], with 1.8; and AVLAASSPYFHDQALLKGMTSISL [V14A], with 2.47.
As for AVLAASSPYFHYQVLLKGMTSISL [D12Y], the protein stability index came out at 3.7.
Take AVLAASSPYFHLQVLLKGMTSISL [D12L]: the protein stability index stood at 2.57.
To AVLAASSPYFHWQVLLKGMTSISL [D12W] belongs 2.12; to AVLAASSPYFHPQVLLKGMTSISL [D12P], 3.38.
Consider AVLAASSPYFHQQVLLKGMTSISL [D12Q], for which the protein stability index was found to be 3.51.
To AVLAASSPYFHRQVLLKGMTSISL [D12R] belongs 3.23; to AVLAASSPYFHNQVLLKGMTSISL [D12N], 1.98; to AVLAASSPYFHKQVLLKGMTSISL [D12K], 1.39.
Then AVLAASSPYFHAQVLLKGMTSISL [D12A], with 2.68.
Then AVLAASSPYFHTQVLLKGMTSISL [D12T], with 2.95; and AVLAASSPYFHDQVDLKGMTSISL [L15D], with 2.77; and AVLAASSPYFHDQVELKGMTSISL [L15E], with 1.38.
Regarding AVLAASSPYFHDQVILKGMTSISL [L15I], the protein stability index amounted to 3.58.
To AVLAASSPYFHDQVMLKGMTSISL [L15M] belongs 1.94; to AVLAASSPYFHDQVPLKGMTSISL [L15P], 1.3; to AVLAASSPYFHDQVQLKGMTSISL [L15Q], 1.76.
As for AVLAASSPYFHDQVALKGMTSISL [L15A], the protein stability index is 1.66.
Then AVLAASSPYFHDQVCLKGMTSISL [L15C], with 1.87.
Then AVLAASSPYFHDQVGLKGMTSISL [L15G], with 3.34.
Turning to AVLAASSPYFHDQVFLKGMTSISL [L15F], the protein stability index worked out at 3.52.
On to AVLAASSPYFHDQVKLKGMTSISL [L15K], for which the protein stability index amounted to 2.3.
As to AVLAASSPYFHDQVNLKGMTSISL [L15N], the protein stability index came to 2.76.
Then AVLAASSPYFHDQVHLKGMTSISL [L15H], with 1.4; and AVLAASSPHFHDQVLLKGMTSISL [Y9H], with 1.33.
To AVLAASSPIFHDQVLLKGMTSISL [Y9I] belongs 4.18; to AVLAASSPPFHDQVLLKGMTSISL [Y9P], 1.84; to AVLAASSPVFHDQVLLKGMTSISL [Y9V], 2.54.
Then AVLAASSPNFHDQVLLKGMTSISL [Y9N], with 2.96.
Take AVLAASSPEFHDQVLLKGMTSISL [Y9E]: the protein stability index stood at 2.05.
To AVLAASSPFFHDQVLLKGMTSISL [Y9F] belongs 3.55.
